Experimental findings from the RNAGym collection of RNA variant scans (doi:10.1021/acssynbio.7b00057) are described below.

The labels stand for the following.
B1: Pistol ribozyme (parent)
chain: GGGUCGUUGUUCCAUAAUCGCGUGGAUAUGGCACGCAAGUUUCUACCGGGCACCGUAAAUGUCCGACUGGAGCCGUUCGGGCGGCUAUAAACAGACCUCAGGCCCGAAGCGUGGCGGCACCUGCCGCCGGUGGUAAAAAAGAUCGGAAGAGCACACGUCU

The variants in this data set derive from B1. Briefly: aptazyme ON/OFF ratio, guanine; higher = stronger switching; co-transcriptional cleavage with and without guanine.
Consider C13A, for which the “aptazyme ON/OFF ratio” value worked out at 1.36.

On to C13U, for which the “aptazyme ON/OFF ratio” value was determined as 1.38.

As to C13G, the “aptazyme ON/OFF ratio” value was found to be 1.13. Turning to C12G C13U, the “aptazyme ON/OFF ratio” value came out at 1.36. Take C12G C13A: the “aptazyme ON/OFF ratio” value turned out to be 1.37. In the case of C12G C13G, the “aptazyme ON/OFF ratio” value was 1.33. With C12U C13A the figure was 1.28; with C12U C13U, 1.26. With C12U C13G, the “aptazyme ON/OFF ratio” value is 1.29. Consider C12G, for which the “aptazyme ON/OFF ratio” value is 1.45. Turning to C12U, the “aptazyme ON/OFF ratio” value stood at 1.91. Turning to C12A C13U, the “aptazyme ON/OFF ratio” value came to 1.9. For C12A C13G, the “aptazyme ON/OFF ratio” value came to 1.27.
